According to the supplement of paper PMC10126150:
± gives the standard deviation of the averaged measurements.

Test system: ATP
Assay: switch fluorescence ratio, 500 uM ATP over buffer (Cy3 cluster intensity, sum of 5 cycles each) (fold (ratio)); higher = stronger signal-on switching upon ATP binding; sequences stand for … in TCGTCGGCAGCGTCAGATGTGTATAAGAGACAGTTTTTTTTTTTTTTTTTTTTTTTTT…TC
Details: aptamer strand: ATP DNA aptamer (quencher-CACCTGGGGGAGTATTGCGGAGGAAGG + anchor), 100 nM annealed; ATP concentration: 500 uM
Method in brief: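 The quencher-labelled ATP aptamer, at 100 nM, was annealed to Cy3-labelled switching-strand clusters on a modified Illumina MiSeq flow-cell. The clusters were imaged in selection buffer, then after 15 min with 500 uM ATP at 22 °C, and this buffer/ATP cycle ran five times with NaOH stripping and re-annealing between runs. Per-cluster fluorescence ratios, summed target-cycle over summed buffer-cycle Cy3 intensity, were averaged per switch-domain sequence. Clusters outside 100-1000 RFU were excluded.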
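Further: ATP exposure 15 min at 22 °C before imaging.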

| Sequence | switch fluorescence ratio |
| --- | --- |
| AGTTTTGCTC | 0.981 ± 0.012 |
| AGTTTTTATA | 1.002 ± 0.0012 |
| AGTTTTTGTC | 0.953 ± 0.048 |
| AGTTTTTTTC | 1.02 ± 0.023 |
| ATAAAAAAGG | 1.01 ± 0.017 |
| ATAAAAACAT | 1 ± 0.027 |
| ATAAAACATG | 0.9785 ± 0.0055 |
| ATAAAATAAA | 0.976 ± 0.031 |
| ATAAACCGGG | 1.02 ± 0.043 |
| ATAAAGACTT | 0.9755 ± 0.0058 |
| ATAAAGCAGT | 1.02 ± 0.048 |
| ATAAAGCTTA | 1 ± 0.03 |
| ATAAAGGGTT | 0.9936 ± 0.009 |
| ATAAATGGGC | 0.972 ± 0.014 |
| ATAAATGGGT | 0.9945 ± 0.0025 |
| ATAAATTGCA | 0.998 ± 0.02 |
| ATAAATTTTC | 0.951 ± 0.043 |
| ATAACCAGTT | 0.988 ± 0.014 |
| ATAACCCTTT | 1.12 ± 0.18 |
| ATAACCGTAC | 2.46 ± 0.27 |
| ATAACGCTCG | 1 ± 0.018 |
| ATAACGGAGG | 0.9773 ± 0.0088 |
| ATAACGGGGG | 1 ± 0.033 |
| ATAACGTACT | 1.84 ± 0.18 |
| ATAACTCGGA | 1 ± 0.0019 |

| Sequence | switch fluorescence ratio |
| --- | --- |
| ATAAGAAACG | 0.946 ± 0.064 |
| ATAAGAACCG | 1.07 ± 0.017 |
| ATAAGACGTT | 1.01 ± 0.041 |
| ATAAGACTCT | 0.9964 ± 0.0081 |
| ATAAGATTTT | 1.01 ± 0.048 |
| ATAAGCAGGA | 1.02 ± 0.017 |
| ATAAGCATGT | 1.02 ± 0.034 |
| ATAAGCATTA | 1.05 ± 0.11 |
| ATAAGCCCCG | 0.993 ± 0.049 |
| ATAAGCGTTC | 1.04 ± 0.0013 |
| ATAAGGGCTT | 0.929 ± 0.11 |
| ATAAGGTCAA | 0.995 ± 0.047 |
| ATAAGGTCGT | 1.02 ± 0.039 |
| ATAAGGTTTT | 0.985 ± 0.014 |
| ATAAGTGGTT | 0.995 ± 0.026 |
| ATAAGTTAAA | 1.07 ± 0.12 |
| ATAAGTTGGG | 0.968 ± 0.024 |
| ATAATAGATA | 1.01 ± 0.038 |
| ATAATAGGGT | 0.972 ± 0.03 |
| ATAATAGTTG | 1.02 ± 0.018 |
| ATAATCCTTG | 1.01 ± 0.005 |
| ATAATGCAGC | 0.988 ± 0.019 |
| ATAATGGAGT | 0.983 ± 0.066 |
| ATAATGGGTT | 1.05 ± 0.058 |
| ATAATGTAGC | 1.04 ± 0.036 |

| Sequence | switch fluorescence ratio |
| --- | --- |
| ATAATTATGT | 1 ± 0.018 |
| ATAATTCGGC | 0.984 ± 0.022 |
| ATAATTGTCT | 1.04 ± 0.04 |
| ATAATTTGGT | 0.982 ± 0.038 |
| ATAATTTTAT | 1.08 ± 0.13 |
| ATACCAGGTT | 1.18 ± 0.063 |
| ATACCCTAGC | 1.09 ± 0.014 |
| ATACCGAAGT | 1.17 ± 0.18 |
| ATACCGAGTG | 0.991 ± 0.029 |
| ATACCTGAGT | 1.21 ± 0.034 |
| ATACGAACGT | 0.9928 ± 0.0019 |
| ATACGCGGGC | 1.27 ± 0.038 |
| ATACGCTTTT | 1.14 ± 0.14 |
| ATACGGAAAA | 1.046 ± 0.004 |
| ATACGGATGC | 1.06 ± 0.025 |
| ATACGGCATG | 1.08 ± 0.011 |
| ATACGGGAAG | 1.05 ± 0.031 |
| ATACGGGTAG | 0.9821 ± 0.0052 |
| ATACGGTAGG | 1.006 ± 0.01 |
| ATACGTGGGA | 1.01 ± 0.032 |
| ATACTAAGTG | 1.01 ± 0.02 |
| ATACTCAGTG | 1.069 ± 0.0084 |
| ATACTCATAT | 1.01 ± 0.015 |
| ATACTGAATT | 1.005 ± 0.0065 |
| ATACTGAGTT | 1.05 ± 0.042 |

| Sequence | switch fluorescence ratio |
| --- | --- |
| ATACTTACCG | 1.223 ± 0.0077 |
| ATACTTATAT | 1.038 ± 0.0097 |
| ATACTTGGCT | 0.992 ± 0.02 |
| ATACTTTTGG | 1 ± 0.011 |
| ATAGAAAGGG | 1.02 ± 0.063 |
| ATAGAAGAAA | 1.02 ± 0.047 |
| ATAGACAGCA | 1.01 ± 0.025 |
| ATAGACGTTT | 0.994 ± 0.053 |
| ATAGAGATGT | 0.978 ± 0.018 |
| ATAGAGCGCT | 0.988 ± 0.023 |
| ATAGAGGGGT | 1.01 ± 0.023 |
| ATAGAGGGTG | 1.05 ± 0.071 |
| ATAGAGGTGA | 1.019 ± 0.0022 |
| ATAGATAGGG | 0.969 ± 0.021 |
| ATAGATCGCA | 1.02 ± 0.018 |
| ATAGATGATC | 1 ± 0.031 |
| ATAGCATTAT | 1.14 ± 0.026 |
| ATAGCTTGGC | 1.011 ± 0.0047 |
| ATAGGAGAGT | 1.003 ± 0.0091 |
| ATAGGAGGTG | 1.07 ± 0.019 |
| ATAGGATAGT | 0.976 ± 0.015 |
| ATAGGCGTGC | 1 ± 0.011 |
| ATAGGGAGGT | 1.01 ± 0.032 |
| ATAGGGATGG | 0.9829 ± 0.0035 |
| ATAGGGCAGC | 1.03 ± 0.04 |

| Sequence | switch fluorescence ratio |
| --- | --- |
| ATAGGGGCTA | 0.988 ± 0.02 |
| ATAGGGGCTC | 0.988 ± 0.021 |
| ATAGGGTGCT | 1.04 ± 0.027 |
| ATAGGTAGGC | 1.05 ± 0.072 |
| ATAGGTCTAT | 1.04 ± 0.065 |
| ATAGGTGGCG | 1.01 ± 0.038 |
| ATAGTAGTGG | 1.003 ± 0.0081 |
| ATAGTATAGA | 1.01 ± 0.047 |
| ATAGTATTTT | 0.995 ± 0.025 |
| ATAGTCCACC | 1.014 ± 0.0072 |
| ATAGTCCATA | 0.991 ± 0.015 |
| ATAGTCCCTA | 1.01 ± 0.0019 |
| ATAGTCGCCC | 1.009 ± 0.0031 |
| ATAGTCGCGC | 0.993 ± 0.058 |
| ATAGTGAAGT | 0.982 ± 0.019 |
| ATAGTTAAAC | 1.01 ± 0.012 |
| ATAGTTTG | 0.97739 ± 0.00022 |
| ATATAAGCGG | 1.02 ± 0.047 |
| ATATAATGAT | 1.02 ± 0.02 |
| ATATAATTTG | 1.04 ± 0.055 |
| ATATACGAGT | 1.002 ± 0.005 |
| ATATACGGTA | 1.15 ± 0.03 |
| ATATAGAGGG | 0.9958 ± 0.0031 |
| ATATAGGATT | 0.9893 ± 0.0068 |
| ATATAGTTGT | 0.999 ± 0.016 |

| Sequence | switch fluorescence ratio |
| --- | --- |
| ATATATGAAA | 0.998 ± 0.024 |
| ATATATGTAA | 0.994 ± 0.023 |
| ATATATGTAC | 1.085 ± 0.0016 |
| ATATATTAAA | 0.981 ± 0.03 |
| ATATCATGTT | 0.995 ± 0.036 |
| ATATCCGGTT | 1 ± 0.041 |
| ATATCCGTCA | 1.05 ± 0.051 |
| ATATCCTTCA | 1.35 ± 0.43 |
| ATATCGGTGT | 0.991 ± 0.029 |
| ATATCGTATT | 1 ± 0.013 |
| ATATCTAGTT | 0.989 ± 0.084 |
| ATATCTATGG | 0.994 ± 0.025 |
| ATATCTGCTT | 0.978 ± 0.035 |
| ATATGACTTT | 1.01 ± 0.052 |
| ATATGAGGGA | 1.01 ± 0.026 |
| ATATGAGTTT | 1.01 ± 0.017 |
| ATATGATATC | 1.03 ± 0.062 |
| ATATGCAGGG | 0.993 ± 0.00024 |
| ATATGCGATG | 0.97 ± 0.051 |
| ATATGCGGGC | 1.02 ± 0.05 |
| ATATGCGTCG | 0.95 ± 0.027 |
| ATATGGACGC | 1.01 ± 0.046 |
| ATATGGCACT | 1.008 ± 0.0034 |
| ATATGGGAAG | 1 ± 0.048 |
| ATATGGGAGG | 0.969 ± 0.016 |

| Sequence | switch fluorescence ratio |
| --- | --- |
| ATATGGGGAC | 1.01 ± 0.024 |
| ATATGTATCA | 1.06 ± 0.033 |
| ATATGTGGAG | 0.987 ± 0.011 |
| ATATTATCAA | 1 ± 0.012 |
| ATATTATTAA | 0.975 ± 0.014 |
| ATATTCGCAC | 1.19 ± 0.063 |
| ATATTCGCGG | 1.01 ± 0.015 |
| ATATTCTGAA | 0.976 ± 0.017 |
| ATATTGAAAT | 1.01 ± 0.033 |
| ATATTGAGCT | 0.976 ± 0.022 |
| ATATTGATAT | 1.01 ± 0.021 |
| ATATTGGAAG | 1.011 ± 0.01 |
| ATATTGGAAT | 1.02 ± 0.024 |
| ATATTGGGAG | 0.99 ± 0.025 |
| ATATTGGGGG | 0.998 ± 0.025 |
| ATATTGTCAT | 0.962 ± 0.015 |
| ATATTTATTG | 0.998 ± 0.04 |
| ATATTTGCTT | 1 ± 0.025 |
| ATATTTGTAT | 1 ± 0.012 |
| ATATTTGTCA | 1.03 ± 0.022 |
| ATCAAATATG | 1.01 ± 0.008 |
| ATCAAATGTA | 0.981 ± 0.024 |
| ATCAAGGACG | 1.02 ± 0.05 |
| ATCAATCCTT | 1.03 ± 0.029 |
| ATCAATGAAC | 1.05 ± 0.018 |

| Sequence | switch fluorescence ratio |
| --- | --- |
| ATCACAATCA | 1.02 ± 0.023 |
| ATCACACATT | 1.02 ± 0.032 |
| ATCACGTGAT | 1.01 ± 0.023 |
| ATCACTTGAC | 1.104 ± 0.0078 |
| ATCAGCGCGG | 1.013 ± 0.0027 |
| ATCAGGGCAA | 1.26 ± 0.18 |
| ATCATAATGT | 0.983 ± 0.032 |
| ATCATCTTCG | 1.02 ± 0.015 |
| ATCATGCGGG | 0.99749 ± 7e-05 |
| ATCATGGCAC | 1.04 ± 0.025 |
| ATCATGGCTT | 1.03 ± 0.011 |
| ATCATGGGGG | 0.986 ± 0.022 |
| ATCATGGTGC | 1.13 ± 0.074 |
| ATCATGTCTA | 1.04 ± 0.047 |
| ATCATGTTAT | 0.986 ± 0.011 |
| ATCATTCGGT | 0.9964 ± 0.0074 |
| ATCCAAGTAA | 1.04 ± 0.021 |
| ATCCCAGGTA | 2.009 ± 0.0073 |
| ATCCCGGGAT | 1 ± 0.022 |
| ATCCGAGGAG | 1.05 ± 0.012 |
| ATCCGATACG | 1.18 ± 0.023 |
| ATCCGCGTAG | 2.17 ± 0.017 |
| ATCCTCGGGA | 1.01 ± 0.034 |
| ATCCTTTAAC | 1 ± 0.032 |
| ATCCTTTCAG | 0.995 ± 0.016 |
